Test [1] addresses human FAP expressed on cells (HEK 293T-hFAP-E5; ExpiCHO-hFAP) (human) (UniProt Q12884). Put plainly: cell-based or functional assay.
In test [2] the target is T1, human Fibroblast Activation Protein (FAP), soluble antigen (human, UniProt Q12884 26-760, biotinylated when immobilized on streptavidin sensors).
T1 construct: also called hFAP; biotinylated FAP
Put plainly: BLI; Table 11, antibody variants (Fab/scFv). On the technique in general: In BLI a coated tip is dipped into the sample, and binding shifts an interference pattern.

Test [3] deals with T1, human Fibroblast Activation Protein …. The test is described as follows: BLI per 6.1.3, human FAP.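 Note: biolayer interferometry with immobilized antigen on sensors, antibody association up to 240 s then dissociation up to 420 s, reference-subtracted, global 1:1 fit with unlinked Rmax.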
Test [4] has as its target T2, human interleukin-2 (IL-2), wild type (human, UniProt P60568 21-153, biotinylated when immobilized).
T2 construct: also called biotinylated IL-2; IL2 WT
Put plainly: BLI; Table 11 (N.B. = no detectable binding).

The target in test [5] is T1, human Fibroblast Activation Protein …. Put plainly: BLI (Gator), biotinylated FAP on streptavidin sensor.
In test [6] the target is T3, human FAP expressed on cells (HEK 293T-hFAP-E5; ExpiCHO-hFAP) (human, UniProt Q12884 1-760).
T3 construct: hFAP expression vector Sino Biologics HG10464-UT; also called hFAP expressing cells
Put plainly: flow cytometry, 1 µg/mL antibody. A general note: In flow cytometry, cells or beads pass a laser one at a time.

Test [7] has as its target T1, human Fibroblast Activation Protein …. The test is described as follows: not stated (legend of FIG. 13A).
Test [8] has the same target. Put plainly: BLI, small-scale crude lysate.

Bounds are passed on as bounds.

T2 sequence (P60568 21-153): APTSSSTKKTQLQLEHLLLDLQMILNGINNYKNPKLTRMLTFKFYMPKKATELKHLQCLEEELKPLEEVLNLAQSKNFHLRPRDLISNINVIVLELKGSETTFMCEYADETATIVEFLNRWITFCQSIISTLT

B1: immunoconjugate of configuration 3 with IL-2 polypeptide, D002 Fab and 872-70 scFv (Fc fusion, part only; not given: CH1, Fc subunits, linkers, part only)
chain, part: EVQLVESGGGLVQPGGSLRLSCAASGFTFSRYSMSWVRQAPGKGLEWVSYITSTDGTTDYADSVKGRFTISRDNSKNTLYLQMNSLRAEDTAVYYCARSQYGRYYSPDYYFDYWGQGTLVTVSSDIQMTQSPSSLSASVGDRVTITCRASQSISSYLNWYQQKPGKAPKLLIYAASSLQSGVPSRFSGSGSGTDFTLTISSLQPEDFATYYCQQSRTSPYTFGQGTKVEIKRTVAPASSSTKKTQLQLEHLLLDLQMILNGINNYKNPKLTRMLTAKFAMPKKATELKHLQCLEEELKPLEEVLNGAQSKNFHLRPRDLISNINVIVLELKGSETTFMCEYADETATIVEFLNRWITFSQSIISTLT
heavy, part: EVQLVESGGGLVQPGGSLRLSCAASGFTFSRYSMSWVRQAPGKGLEWVSDISSYSTTYYADSVKGRFTISRDNSKNTLYLQMNSLRAEDTAVYYCARSQYGRYYSPDYYFDYWGQGTLVTVSS
light, part: DIQMTQSPSSLSASVGDRVTITCRASQSIGNSLNWYQQKPGKAPKLLIYAASSLQSGVPSRFSGSGSGTDFTLTISSLQPEDFATYYCQQGRRSPFTFGQGTKVEIKRTVA
For B1, the enhancement of EC50, HEK-Blue IL-2 reporter, with FAP-expressing cells in test [1] is less than 200 fold.

B2: immunoconjugate of configuration 3 with IL-2 polypeptide, D002 Fab and 872-5 scFv (Fc fusion, part only; not given: CH1, Fc subunits, linkers, part only)
chain, part: EVQLVESGGGLVQPGGSLRLSCAASGFTFRGYIMSWVRQAPGKGLEWVSWISPEGSRTGYADSVKGRFTISRDNSKNTLYLQMNSLRAEDTAVYYCARLQYGTWFDYWGQGTLVTVSSDIQMTQSPSSLSASVGDRVTITCRASQSISSYLNWYQQKPGKAPKLLIYAASSLQSGVPSRFSGSGSGTDFTLTISSLQPEDFATYYCQQATLLLPTFGQGTKVEIKRTVAPASSSTKKTQLQLEHLLLDLQMILNGINNYKNPKLTRMLTAKFAMPKKATELKHLQCLEEELKPLEEVLNGAQSKNFHLRPRDLISNINVIVLELKGSETTFMCEYADETATIVEFLNRWITFSQSIISTLT
heavy, part: EVQLVESGGGLVQPGGSLRLSCAASGFTFSRYSMSWVRQAPGKGLEWVSDISSYSTTYYADSVKGRFTISRDNSKNTLYLQMNSLRAEDTAVYYCARSQYGRYYSPDYYFDYWGQGTLVTVSS
light, part: DIQMTQSPSSLSASVGDRVTITCRASQSIGNSLNWYQQKPGKAPKLLIYAASSLQSGVPSRFSGSGSGTDFTLTISSLQPEDFATYYCQQGRRSPFTFGQGTKVEIKRTVA
Regarding B2, the enhancement of EC50, HEK-Blue IL-2 reporter, with FAP-expressing cells in test [1] is less than 200 fold.

B3: anti-FAP antibody 872-5 (antibody, V domains shown)
VH: EVQLVESGGGLVQPGGSLRLSCAASGFTFRGYIMSWVRQAPGKGLEWVSWISPEGSRTGYADSVKGRFTISRDNSKNTLYLQMNSLRAEDTAVYYCARLQYGTWFDYWGQGTLVTVSS
VL: DIQMTQSPSSLSASVGDRVTITCRASQSISSYLNWYQQKPGKAPKLLIYAASSLQSGVPSRFSGSGSGTDFTLTISSLQPEDFATYYCQQATLLLPTFGQGTKVEIKR
notes: monovalent Fab-Fc (knob-in-hole) for KD per 6.1.3; also called IgG 5; FAP5
The term Kd denotes a measure of binding affinity in units of concentration. One may read the koff as the rate constant with which the complex falls apart. Read a low koff as a long-lived complex. Usually kon stands for the rate constant with which the complex forms. Take B3: the results for the dissociation constant (Kd) in test [2], in test [3] and in test [5] were 7 nM, 7.3 nM and 6.6 nM, respectively. The koff was 0.00201 s⁻¹ in test [3] and 0.0028 s⁻¹ in test [5]. The kon in test [3] stood at 277000 M⁻¹ s⁻¹; in test [5] it was 420000 M⁻¹ s⁻¹. Besides, in test [4], the binding result is on record as “no binding”.

B4: two-in-one antibody D049 (bispecific antibody, V domains shown)
VH: EVQLVESGGGLVQPGGSLRLSCAASGFTFFSYWMSWVRQAPGKGLEWVSTISPYDSSTAYADSVKGRFTISRDNSKNTLYLQMNSLRAEDTAVYYCARLLYGTWFDYWGQGTLVTVSS
VL: DIQMTQSPSSLSASVGDRVTITCRASQIVRTYLNWYQQKPGKAPKLLIYAASSLQSGVPSRFSGSGSGTDFTLTISSLQPEDFATYYCQQGAQLQPTFGQGTKVEIKR
Take B4: in test [6], the binding result is on record as “binds”.

B5: scFv5, scFv derived from antibody 872-5 (scFv, V domains shown)
VH: EVQLVESGGGLVQPGGSLRLSCAASGFTFRGYIMSWVRQAPGKGLEWVSWISPEGSRTGYADSVKGRFTISRDNSKNTLYLQMNSLRAEDTAVYYCARLQYGTWFDYWGQGTLVTVSS
VL: DIQMTQSPSSLSASVGDRVTITCRASQSISSYLNWYQQKPGKAPKLLIYAASSLQSGVPSRFSGSGSGTDFTLTISSLQPEDFATYYCQQATLLLPTFGQGTKVEIKR
notes: Single chain; also called scFv872-5
As for B5, the Kd in test [7] was approximately 5 nM.

B6: D029 LV4 (Rev1:Q27G:P94Y) (bispecific antibody, V domains shown)
VH: EVQLVESGGGLVQPGGSLRLSCAASGFTFTWSFMSWVRQAPGKGLEWVSWIGPSGSYTDYADSVKGRFTISRDNSKNTLYLQMNSLRAEDTAVYYCARSQYGRYYSPDYYFDYWGQGTLVTVSS
VL: DIQMTQSPSSLSASVGDRVTITCRASGALGFYLNWYQQKPGKAPKLLIYAASSLSSGVPSRFSGSGSGTDFTLTISSLQPEDFATYYCQQGRTYPLTFGQGTKVEIKR
On to B6, for which the Kd in test [8] is approximately 100 nM.

B7: anti-FAP antibody 872-70 (antibody, V domains shown)
VH: EVQLVESGGGLVQPGGSLRLSCAASGFTFSRYSMSWVRQAPGKGLEWVSYITSTDGTTDYADSVKGRFTISRDNSKNTLYLQMNSLRAEDTAVYYCARSQYGRYYSPDYYFDYWGQGTLVTVSS
VL: DIQMTQSPSSLSASVGDRVTITCRASQSISSYLNWYQQKPGKAPKLLIYAASSLQSGVPSRFSGSGSGTDFTLTISSLQPEDFATYYCQQSRTSPYTFGQGTKVEIKR
notes: also called IgG 70; FAP70
B7: the Kd in test [2] was less than 1 nM. Moreover, the binding result in test [4] is given as “no binding”. Moreover, in test [5], the Kd is less than 1 nM and the kon stood at 110000 M⁻¹ s⁻¹.

B8: anti-FAP antibody 872-59 (antibody, V domains shown)
VH: EVQLVESGGGLVQPGGSLRLSCAASGFTFTSYAMSWVRQAPGKGLEWVSSIYSWYGTTSYADSVKGRFTISRDNSKNTLYLQMNSLRAEDTAVYYCARTISYSQYAYGYSFDYWGQGTLVTVSS
VL: DIQMTQSPSSLSASVGDRVTITCRASQSISSYLNWYQQKPGKAPKLLIYAASSLQSGVPSRFSGSGSGTDFTLTISSLQPEDFATYYCQQAFTSPRTFGQGTKVEIKR
notes: also called IgG 59; FAP59
In test [2], B8 came in with a Kd of 16 nM. The binding result in test [4] is given as “no binding”. In test [5], this molecule displayed a Kd of 15.5 nM, a koff of 0.0056 s⁻¹ and a kon of 360000 M⁻¹ s⁻¹.

B9: antibody D003 (antibody, V domains shown)
VH: EVQLVESGGGLVQPGGSLRLSCAASGFTFYTYIMSWVRQAPGKGLEWVSSIGPSYGDTIYADSVKGRFTISRDNSKNTLYLQMNSLRAEDTAVYYCARTISYSQYAYGYSFDYWGQGTLVTVSS
VL: DIQMTQSPSSLSASVGDRVTITCRASQSISSYLNWYQQKPGKAPKLLIYAASSLQSGVPSRFSGSGSGTDFTLTISSLQPEDFATYYCQQTRSYLPTFGQGTKVEIKR
In the case of B9, the binding result in test [6] is “binds”.

B10: D029 VH-S55L:T30R (bispecific antibody, V domains shown)
VH: EVQLVESGGGLVQPGGSLRLSCAASGFTFRWSFMSWVRQAPGKGLEWVSWIGPSGLYTDYADSVKGRFTISRDNSKNTLYLQMNSLRAEDTAVYYCARSQYGRYYSPDYYFDYWGQGTLVTVSS
VL: DIQMTQSPSSLSASVGDRVTITCRASQDGGNYLNWYQQKPGKAPKLLIYGASTLYSGVPSRFSGSGSGTDFTLTISSLQPEDFATYYCQQGRTPPLTFGQGTKVEIKR
B10: in test [8], the Kd was approximately 100 nM.

B11: D029 T30R:S55L/LV1 (bispecific antibody, V domains shown)
VH: EVQLVESGGGLVQPGGSLRLSCAASGFTFRWSFMSWVRQAPGKGLEWVSWIGPSGLYTDYADSVKGRFTISRDNSKNTLYLQMNSLRAEDTAVYYCARSQYGRYYSPDYYFDYWGQGTLVTVSS
VL: DIQMTQSPSSLSASVGDRVTITCRASQALGFYLNWYQQKPGKAPKLLIYAASSLSSGVPSRFSGSGSGTDFTLTISSLQPEDFATYYCQQGRTPPLTFGQGTKVEIKR
notes: also called Rev1/S55L:T30R
Take B11: in test [8], the Kd is approximately 100 nM.

B12: D029-HV1LV2 (bispecific antibody, V domains shown)
VH: EVQLVESGGGLVQPGGSLRLSCAASGFTFTWSFMSWVRQAPGKGLEWVSWIGPSGLYTDYADSVKGRFTISRDNSKNTLYLQMNSLRAEDTAVYYCARSQYGRYYSPDYYFDYWGQGTLVTVSS
VL: DIQMTQSPSSLSASVGDRVTITCRASGALGFYLNWYQQKPGKAPKLLIYAASSLSSGVPSRFSGSGSGTDFTLTISSLQPEDFATYYCQQGRTYPFTFGQGTKVEIKR
notes: also called Rev1:Q27G:P94Y:L96F/S55L; D029HVILV2 (so in the source)
In the case of B12, the Kd in test [8] was approximately 100 nM.

B13: D029VH T30R:S55L/LV4 (bispecific antibody, V domains shown)
VH: EVQLVESGGGLVQPGGSLRLSCAASGFTFRWSFMSWVRQAPGKGLEWVSWIGPSGLYTDYADSVKGRFTISRDNSKNTLYLQMNSLRAEDTAVYYCARSQYGRYYSPDYYFDYWGQGTLVTVSS
VL: DIQMTQSPSSLSASVGDRVTITCRASGALGFYLNWYQQKPGKAPKLLIYAASSLSSGVPSRFSGSGSGTDFTLTISSLQPEDFATYYCQQGRTYPLTFGQGTKVEIKR
notes: also called Rev1:Q27G:P94Y/S55L:T30R
B13 came in with a Kd in test [8] of approximately 100 nM.

B14: D029-HV1LV4 (bispecific antibody, V domains shown)
VH: EVQLVESGGGLVQPGGSLRLSCAASGFTFTWSFMSWVRQAPGKGLEWVSWIGPSGLYTDYADSVKGRFTISRDNSKNTLYLQMNSLRAEDTAVYYCARSQYGRYYSPDYYFDYWGQGTLVTVSS
VL: DIQMTQSPSSLSASVGDRVTITCRASGALGFYLNWYQQKPGKAPKLLIYAASSLSSGVPSRFSGSGSGTDFTLTISSLQPEDFATYYCQQGRTYPLTFGQGTKVEIKR
notes: also called Rev1:Q27G:P94Y/S55L; D029HVILV4 (so in the source)
For B14, the Kd in test [8] is approximately 100 nM.

B15: D029VH T30R:S55L/LV2 (bispecific antibody, V domains shown)
VH: EVQLVESGGGLVQPGGSLRLSCAASGFTFRWSFMSWVRQAPGKGLEWVSWIGPSGLYTDYADSVKGRFTISRDNSKNTLYLQMNSLRAEDTAVYYCARSQYGRYYSPDYYFDYWGQGTLVTVSS
VL: DIQMTQSPSSLSASVGDRVTITCRASGALGFYLNWYQQKPGKAPKLLIYAASSLSSGVPSRFSGSGSGTDFTLTISSLQPEDFATYYCQQGRTYPFTFGQGTKVEIKR
notes: also called Rev1:Q27G:P94Y:L96F/S55L:T30R
B15: in test [8], the Kd is approximately 100 nM.

The values above are taken from patent US20240358849A1 (SUZHOU FUSE BIOSCIENCES, published 2024).
